Laboratory results published in patent US20060051359A1.

Molecular target: 8H9 antigen (human) (UniProt Q5ZPR3)
Assay: cell-based or functional assay

UniProt Q5ZPR3, sequence (Q5ZPR3 29-534): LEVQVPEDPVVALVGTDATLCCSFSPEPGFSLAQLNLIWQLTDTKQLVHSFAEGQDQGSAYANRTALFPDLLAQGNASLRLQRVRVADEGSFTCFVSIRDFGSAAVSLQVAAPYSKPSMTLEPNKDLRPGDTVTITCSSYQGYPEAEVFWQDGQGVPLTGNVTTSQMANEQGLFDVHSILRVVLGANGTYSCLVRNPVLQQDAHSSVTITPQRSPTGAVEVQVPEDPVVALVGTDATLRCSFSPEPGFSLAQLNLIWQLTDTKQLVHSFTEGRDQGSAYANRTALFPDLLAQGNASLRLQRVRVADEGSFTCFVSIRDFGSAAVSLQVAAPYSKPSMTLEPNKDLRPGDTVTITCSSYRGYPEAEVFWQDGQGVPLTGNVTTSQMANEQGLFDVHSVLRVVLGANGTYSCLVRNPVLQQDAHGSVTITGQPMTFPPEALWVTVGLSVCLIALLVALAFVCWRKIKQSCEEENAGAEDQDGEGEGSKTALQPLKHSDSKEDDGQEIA

8H9(scFv)-PE38 was tested. Which IC50 of 8H9(Fv)-PE38 (ng/ml) on BT-474 cells did it give?
The IC50 of 8H9(Fv)-PE38 (ng/ml) on BT-474 cells was 20 ng/mL.

What about the IC50 of 8H9(Fv)-PE38 (ng/ml) on CRL1427 (MG63) cells of the same substance?
Its IC50 of 8H9(Fv)-PE38 (ng/ml) on CRL1427 (MG63) cells is 50 ng/mL.

And the IC50 of 8H9(Fv)-PE38 (ng/ml) on LAN-1 cells?
Its IC50 of 8H9(Fv)-PE38 (ng/ml) on LAN-1 cells is 12.5 ng/mL.

What about the IC50 of 8H9(Fv)-PE38 (ng/ml) on MCF-7 cells of the same substance?
The IC50 of 8H9(Fv)-PE38 (ng/ml) on MCF-7 cells was 5 ng/mL.

And the IC50 of 8H9(Fv)-PE38 (ng/ml) on NMB-7 cells?
The IC50 of 8H9(Fv)-PE38 (ng/ml) on NMB-7 cells was 9 ng/mL.

And the IC50 of 8H9(Fv)-PE38 (ng/ml) on OHS-M1 cells?
Its IC50 of 8H9(Fv)-PE38 (ng/ml) on OHS-M1 cells is 20 ng/mL.

And the IC50 of 8H9(Fv)-PE38 (ng/ml) on SK-N-BE(2) cells?
Its IC50 of 8H9(Fv)-PE38 (ng/ml) on SK-N-BE(2) cells is 90 ng/mL.

What about the IC50 of 8H9(Fv)-PE38 (ng/ml) on U2OS cells of the same substance?
Its IC50 of 8H9(Fv)-PE38 (ng/ml) on U2OS cells is 30 ng/mL.

What about the IC50 of 8H9(Fv)-PE38 (ng/ml) on ZR-75-1 cells of the same substance?
The IC50 of 8H9(Fv)-PE38 (ng/ml) on ZR-75-1 cells was 35 ng/mL.
